Measured values from article PMC4652773, “Functional significance of protein assemblies predicted by the crystal structure of the restriction endonuclease BsaWI”.

Columns and labels:
Experiment in all cases: EMSA; 5 mM Ca2+; EMSA: 40 mM Tris-acetate pH 8.3, 0.1 mg/ml BSA, 10% glycerol, 5 mM CaCl2 or 0.1 mM EDTA, 1 nM DNA, room temperature, 15 min
BsaWI wt = target: T1, BsaWI wt (UniProt Q6UQ65 1-272); conditions: protein: recombinant; chain copies: 4; label: 33P; blunt
T1 sequence: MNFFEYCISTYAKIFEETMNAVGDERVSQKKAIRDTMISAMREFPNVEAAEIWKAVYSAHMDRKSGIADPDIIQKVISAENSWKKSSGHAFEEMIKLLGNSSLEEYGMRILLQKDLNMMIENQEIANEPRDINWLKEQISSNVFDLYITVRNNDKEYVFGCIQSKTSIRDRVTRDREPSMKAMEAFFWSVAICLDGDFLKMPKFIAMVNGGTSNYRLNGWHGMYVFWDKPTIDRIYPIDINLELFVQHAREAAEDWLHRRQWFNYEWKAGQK

BsaWI D145A = target: T2, BsaWI D145A (UniProt Q6UQ65 1-272, D145A); conditions: protein: recombinant; chain copies: 4; label: 33P; blunt
T2 sequence: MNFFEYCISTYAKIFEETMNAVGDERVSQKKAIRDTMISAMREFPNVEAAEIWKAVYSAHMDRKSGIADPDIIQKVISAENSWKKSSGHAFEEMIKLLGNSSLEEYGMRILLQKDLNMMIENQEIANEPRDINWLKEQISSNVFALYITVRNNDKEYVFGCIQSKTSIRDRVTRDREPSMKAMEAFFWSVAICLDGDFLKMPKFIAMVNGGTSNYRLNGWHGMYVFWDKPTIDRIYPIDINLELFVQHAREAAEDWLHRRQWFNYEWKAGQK

BsaWI K85A = target: T3, BsaWI K85A (UniProt Q6UQ65 1-272, K85A); conditions: protein: recombinant; chain copies: 4; label: 33P; blunt
T3 sequence: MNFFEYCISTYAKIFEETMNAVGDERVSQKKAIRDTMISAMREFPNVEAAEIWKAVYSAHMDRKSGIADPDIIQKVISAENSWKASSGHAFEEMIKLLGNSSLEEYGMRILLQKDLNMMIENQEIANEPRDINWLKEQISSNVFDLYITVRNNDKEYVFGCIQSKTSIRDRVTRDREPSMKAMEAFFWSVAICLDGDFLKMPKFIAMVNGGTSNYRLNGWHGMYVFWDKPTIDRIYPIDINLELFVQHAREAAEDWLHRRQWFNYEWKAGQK

BsaWI D175A = target: T4, BsaWI D175A (UniProt Q6UQ65 1-272, D175A); conditions: protein: recombinant; chain copies: 4; label: 33P; blunt
T4 sequence: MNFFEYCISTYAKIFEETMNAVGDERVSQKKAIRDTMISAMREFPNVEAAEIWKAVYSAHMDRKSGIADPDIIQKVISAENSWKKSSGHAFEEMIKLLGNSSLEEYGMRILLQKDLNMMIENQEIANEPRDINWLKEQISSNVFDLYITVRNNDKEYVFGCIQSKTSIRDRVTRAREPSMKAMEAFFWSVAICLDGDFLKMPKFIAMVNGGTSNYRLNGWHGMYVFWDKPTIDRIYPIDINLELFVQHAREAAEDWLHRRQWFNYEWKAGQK

BsaWI E128A = target: T5, BsaWI E128A (UniProt Q6UQ65 1-272, E128A); conditions: protein: recombinant; chain copies: 2; label: 33P; blunt
T5 sequence: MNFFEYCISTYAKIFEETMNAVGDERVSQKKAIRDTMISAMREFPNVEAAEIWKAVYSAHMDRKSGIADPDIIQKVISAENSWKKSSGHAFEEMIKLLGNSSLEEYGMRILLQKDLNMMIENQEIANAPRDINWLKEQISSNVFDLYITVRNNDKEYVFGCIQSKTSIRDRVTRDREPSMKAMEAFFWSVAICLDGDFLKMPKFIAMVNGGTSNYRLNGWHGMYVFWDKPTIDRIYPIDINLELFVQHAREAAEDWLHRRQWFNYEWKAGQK

BsaWI W262A = target: T6, BsaWI W262A (UniProt Q6UQ65 1-272, W262A); conditions: protein: recombinant; chain copies: 2; label: 33P; blunt
T6 sequence: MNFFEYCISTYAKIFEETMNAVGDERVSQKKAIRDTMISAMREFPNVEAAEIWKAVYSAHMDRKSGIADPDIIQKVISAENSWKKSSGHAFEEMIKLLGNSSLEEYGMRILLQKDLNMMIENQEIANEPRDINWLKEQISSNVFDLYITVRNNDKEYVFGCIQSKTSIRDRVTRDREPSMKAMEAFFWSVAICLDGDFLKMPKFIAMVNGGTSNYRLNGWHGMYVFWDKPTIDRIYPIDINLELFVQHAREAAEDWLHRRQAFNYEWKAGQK

BsaWI R130A&R259A = target: T7, BsaWI R130A&R259A (UniProt Q6UQ65 1-272, R130A;R259A); conditions: protein: recombinant; chain copies: 2; label: 33P; blunt
T7 sequence: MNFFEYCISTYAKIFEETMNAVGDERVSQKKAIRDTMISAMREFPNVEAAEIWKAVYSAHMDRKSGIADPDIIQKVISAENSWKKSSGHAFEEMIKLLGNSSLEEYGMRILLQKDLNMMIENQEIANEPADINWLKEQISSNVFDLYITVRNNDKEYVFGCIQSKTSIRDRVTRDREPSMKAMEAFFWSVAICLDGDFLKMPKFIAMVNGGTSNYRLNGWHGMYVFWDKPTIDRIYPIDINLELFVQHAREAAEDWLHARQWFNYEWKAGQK

B1: SP (dsDNA)
DNA 1: GCCTTTCGGTTTACCGGTGTCATTCCGCTG
DNA 2: CAGCGGAATGACACCGGTAAACCGAAAGGC
- Kd (BsaWI wt): 2.9 ± 0.4 nM
- Kd (BsaWI D145A): 17 ± 4.7 nM
- Kd (BsaWI K85A): 229 ± 9.1 nM
- Kd (BsaWI D175A): 6.1 ± 2.3 nM
- Kd (BsaWI E128A): 2.19 ± 0.4 nM
- Kd (BsaWI W262A): 2.7 ± 0.8 nM
- Kd (BsaWI R130A&R259A): 2.7 ± 0.5 nM
